# Test results as given in the RNAGym collection of RNA variant scans (doi:10.1073/pnas.2313332121).
# B1: TPR t1 (parent)
# chain: GACCAAUCUGCCCUCAGAGCUCGAGAACAUCUUCGGAUGCAGAGGAGGCAGGCUUCGGUGGCGCGAUAGCGCCAACGUCCUCAACCUCCAAUGCAUCCCACCACAUGAUGAUGCCUGAAGAGCCUUGGUUUUUUG
# Variants of: B1
# Test: polymerase ribozyme fitness, log enrichment relative to wild type (log ratio); higher = more active; in vitro selection for triplet polymerase activity
# Outline: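 Mutant libraries were PCR-built and transcribed for each subunit of a heterodimeric triplet polymerase ribozyme and selected for one round in triplicate at −7 °C, frozen, before gel excision of extended constructs and streptavidin-bead capture. Input and output libraries were Illumina-sequenced, keeping genotypes with ≥10 input reads and ≥1 read per output. Fitness is a logarithmic ratio of genotype to wild-type enrichment, in base 2, using inverse-variance-weighted replicate averages.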
row,Variant,polymerase ribozyme fitness (log ratio)
1,GACCAAUCUGCCCUCAGAGCUCGAAAACAUCUUCGGAUGCAGAGGAGGCAGGCUUCGGUGGCGCGAUAGCGCCAACGUCCUCAACCUCCAAUGCAUCCCACCACAUGAUGAUGCCUGAAGAGCCUUGGUUUUUUG [G25A],-4.68
2,GACCAAUCUGCCCUCAGAGCUCGUGAACAUCUUCGGAUGCAGAGGAGGCAGGGUUCGGUGGCGCGAUAGCGUCAACGUCCUCAACCUCAAAUGCAUCCCACCACAUGAUGAUGCCUGAAGAGCAUUGGUUUUUUG [A24U C53G C72U C89A C124A],-7.6
3,GACCAAUCUGCCCUCAGAGCUCGAAAACAUCUUCGGAUGCAGAGGAGGCAGGCUUCGGUGGCGCGAUAGCGCCAACGUCCUCAACCUCCAAUGCAUCCCACCACAUGAUGAUGCCUGAAGUGCCUUGGUUUUUUG [G25A A121U],-2.9
4,GACCAAUCUGCCCUCAGAGCUCGAAAACAUCUUCGGAUGCAGAGGAGGCAGGCUUCGGUCGCGCGAUAGCGCCAACGUCCUCAACCUCCAAUGCAUCCCACCACAUGAUGAUGCCUGAAGAGCCUUGGUUUUUUG [G25A G60C],-7.2
5,GACCAAUCUGCCCUCAGAGCUCGUGAACAUCUUCGGAUGCAGAGGAGGAAGGCUUCGGUGGCGCGAUAGCGCCAACGUCCUGAACCUCCAAUGCAUCCCACCACAUGAUGAAGCCUGAAGAGCCUUGGUUUUCUG [A24U C49A C82G U112A U133C],-4.62
6,GACCAAUCUGCCCUCAGAGCUCGAAAACAUCUUCGGAUGCAGGGGAGGCAGGCUUCGGUGGCGCGAUAGCGUCAACGUCCUCAACCUCCAAUGCAUCCCACCACAUGAUGUUGCCUGAAGAGCCUUGGUUUUUUG [G25A A43G C72U A111U],-6.94
7,GACCAAUCUGCCCUCAGAGCUCGAAAACAUCUUCGGAUGCAGAGGAGGCAGGCUUCGGUGGCGCGUUAGGGCCAACGUCCUCAACCUCCAAUGCAUCCCACCACAUGAUCAUGCCUGAAGAGCCUUGGUUUUUUG [G25A A66U C70G G110C],-6.93
8,GACCAAUCUGCCCUCAGAGCUCGUGAACAUCUUCGGAUGCAGAGGAGGCAGGCUUCGGUGCCGCGAUAGCGCCAACGUCCUCAACCUCCAAUGCAUCCCACCACAUGAUGAUGCCUGAAGAGCCUUGGUUUUUUG [A24U G61C],-7.27
9,GACCAAUCUGCCCUCAGAGCUCGUGAACAUCUUAGGAUGCAGAGGAGGCAGGCUUCGGAGGCUCGAUAGCGCCAACGUCAUCAACCUCCAAUGCAUCCCACCACAUGAUGAUACCUGAAGAGCCUUGGUUUUUUG [A24U C34A U59A G63U C80A G113A],-7.46
10,GACCAAUCUGCCCUCAGAGCUCGUGAACAUCUUCGGAUGCAGAGGAGGGAGGCUUCGGUGGCGAGAUAGCGCCAACGUCCUCAACCUCCAAUGCAUCCCACCAUAUGAUGAUGCCUGAAGAGGCUUGGUUUUUUG [A24U C49G C64A C104U C123G],-6.64
11,GACCAAUCUGCCCUCAGAGCUCGAAAACAUCUUCGGAUGUAGAGGAGGCAGGCUUCGGUGGCGCGAUAGCGCCAACGUCCUCAACCUCCAAUCCAUCCCAUCAGAUGAUGAUGCUUGGAGAGCCUUGGUUUUUUG [G25A C40U G93C C101U C104G C115U A118G],-6.52
12,GACCAAUCUGCCCUCAGAGCUCGAAAACAUCUUCGGAUGCAGAGGAGGCAGGCUUCGGUGGCGCGAUAGCGGCAACGUCCUCAACCUCCAAUGCAUCCCACCACAUGAUGAUGCCUGAAGAGCCUUGGUUUUUUG [G25A C72G],-5.55
13,GACCAAUCUGCCCUCAGAGCUCGGGAACAUCUUCGGAUGCAGAGGAGGCAGGCUUCGGUGGCGCGAUAGCGCCAACGUCCUCAACCUCCAAUGCAGCCCACAACAUGAUGAUGCCUGAAGAGCCUUGGUUUUUUG [A24G U96G C102A],-5.25
14,GACCAAUCUGCCCUCAGAGCUCGUGAACAUCUUCGGAUGCAGAGGAGGCAGGCUUCGGUGGCGCGAUAUCGCCAACGUCCUCAACCUCCAAUGCAUCCCACCACAUGAUGAUGCCUGAAGAGCCUUGGUUUUUUG [A24U G69U],-3.76
15,GACCAAUCUGCCCUCAGAGCUCGUGAACAUCUUCGGAUGCAGAGGAGGCAGGCUUCGGUGGCGCGAUAGCGCCAACGUCCUCUACCUCCAAUGCAUCCCACCACAUGAUGAUGCCUGAAGAGCCUUGGUUUUUUG [A24U A83U],-7.24
16,GACCAAUCUGCCCUCAGAGCUCGUGAACAUCUUCGGAUGCAGAGGAGGCAGGCUUCGGUGGCGCGAUAGCGGCAACGUCCUCAACCUCCAAUGCAUCCCACCACAUGAUGAUGCCUGAAGAGCCUUGGUUUUUUG [A24U C72G],-5.64
17,GACCAAUCUGCCCUCAGAGCUCGUGAACACCUUCGGAUGCAGAGGAGGCAGGCUUCGAUGGCCCGAUAGCGCCAACGUCCUCAACCUCCAAUGCGUCCCACCACAUGAUGAUGCCUGAACAGCCUUGGUUUUUUG [A24U U30C G58A G63C A95G G120C],-8.06
18,GACCAAUCUGCCCUCAGAGCUCGAAAACAUCUUCGGAUGCAGAGGAGGCAGGCUUCGGUGGCGCGAUAGCGCCAACGUCCUCAACCUCCAAUACAUCCCACCACAUGAUGAUGCCUGAAGAGCCUUGGUUUUUUG [G25A G93A],-6.22
19,GACCAAUCUGCCCUCAGAGCUCGUGAACAUCUUCGGAUGCAGCGGAGGCAGGCUUCGGUCGCGCGAUAGCGCCAACGUCCUCAUCCUCCAAUGCAUCCCACCACAUGAUCAUGCCUGAAGAGCCUUGGAUUUUUG [A24U A43C G60C A84U G110C U129A],-6.86
20,GACCAAUCUGCCCUCAGAGCUCGUGAACAUCUUCGGAUGCAGAGGAGGCAGGCUUCGGUGGCGCGAUAGCGCCAACGUCCUCUACCUCCAAUGUAUCCCACCACAUGAUGCUGCCUGAAGAACCUUGGUUUUUUG [A24U A83U C94U A111C G122A],-6.94
21,GACCAAUCUGCCCUCAGAGCUCGUGAACAUCUUCCGAUGCAGAGGAGGAAGGCUUCGGUGGCACGAUAGCGCCAACGUCCUCAACCUCCAAUGCAUCCCACCACAUGAUGGUGCCUGAAGAGCUUUGGUUUUUUA [A24U G35C C49A G63A A111G C124U G135A],-6.36
